Laboratory results taken from the supplement of paper PMC10724198.
± gives the standard deviation of the averaged measurements.
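Also: PSI is a weighted mean of sequencing reads over stability bins, variants kept only with over 10 reads, mCherry proximal and sfGFP distal, peptide attached via GGGS linker.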

Each sequence was assayed on Saccharomyces cerevisiae (assay: protein stability index of tFT-peptide fusion (C-terminal peptide) (PSI (0-1 scale)); higher = more stable (slower turnover)). Details: genetic background: wild type; temperature: 30 C.
Method: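 MPS profiling in S. cerevisiae of the tFT-X12 degron library: putative degron peptides plus stable controls, 12 aa, fused to the C-terminus of a sfGFP-mCherry timer. Cells are FACS-sorted into 8 mCherry/sfGFP bins and deep-sequenced. PSI runs from 0 (unstable) to 1 (stable). Backgrounds are wild type, das1Δ and doa10Δ at 30 °C, and wild type, das1Δ, cdc34-1 and cdc53-1 at 37 °C; 2-3 technical replicates each.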
With PTLPASLHSIYP the protein stability index was 0.6731 ± 0.0056. PTYSCSIKIQAH was tested, and the protein stability index was 0.366 ± 0.022. PWGSHLYYVVCI was tested, and the protein stability index was 0.221 ± 0.035. PWWDALLRARVC gave a protein stability index of 0.115 ± 0.022. PYVHPFRCYWVL gave a protein stability index of 0.138 ± 0.0077. QCSPGLPHAQGL showed a protein stability index of 0.666 ± 0.039. Sequence QGPHISQYRTHR has a protein stability index of 0.673 ± 0.014. Work on QHRAIKIEIKIN yielded a protein stability index of 0.0582 ± 0.013. QVLISLYVHGYF showed a protein stability index of 0.426 ± 0.02. RCCWWNAQAVWR showed a protein stability index of 0.631 ± 0.032. In the case of RCLHTSVFLIFP, the protein stability index is reported as 0.488 ± 0.03. Sequence RDASLLFHFFVC has a protein stability index of 0.0965 ± 0.0056. For REGDLLKFKMRP, the protein stability index was 0.639 ± 0.015. Sequence RFFVRRVRVAVL has a protein stability index of 0.382 ± 0.031. In the case of RFICMMYLVYLC, the protein stability index is reported as 0.0619 ± 0.018. RFLPYLPTPLSP was tested, and the protein stability index was 0.513 ± 0.014. Work on RGAVLLPSLWVV yielded a protein stability index of 0.381 ± 0.022. With RGCLVHSGFFIV the protein stability index was 0.239 ± 0.027. Work on RGGVLYVSIRCK yielded a protein stability index of 0.233 ± 0.037. In the case of RIHRRLIKNKRV, the protein stability index is reported as 0.156 ± 0.038. Sequence RIVSGVVLLVFV has a protein stability index of 0.226 ± 0.042. Sequence RKGQNKKRNKIY has a protein stability index of 0.295 ± 0.035. RKWLFFRSWRYV was tested, and the protein stability index was 0.0663 ± 0.011. With RLFIIYLLNIQG the protein stability index was 0.305 ± 0.047. With RLFSPPVLATPS the protein stability index was 0.534 ± 0.019. RLIAVAGVVVVA showed a protein stability index of 0.431 ± 0.021. RLLSIFKILHVG showed a protein stability index of 0.0968 ± 0.0051. Sequence RLRHPPRLSTLC has a protein stability index of 0.338 ± 0.023. RLSTPFTVNHFI was tested, and the protein stability index was 0.168 ± 0.044. Work on RLVPFMAVRVLF yielded a protein stability index of 0.41 ± 0.018. RRVRVVCVIVAA was tested, and the protein stability index was 0.221 ± 0.03. RSFNVGLELLVW was tested, and the protein stability index was 0.297 ± 0.046. RTWFTYMSIPVW was tested, and the protein stability index was 0.237 ± 0.026. Work on RVFGWIEVEVEG yielded a protein stability index of 0.386 ± 0.054. For RVFRLDRRLQVV, the protein stability index was 0.154 ± 0.018. RVGSSLIVVYCV gave a protein stability index of 0.238 ± 0.023. RVLCLVSSLTLF showed a protein stability index of 0.388 ± 0.026. With RWTKMNNLIIEF the protein stability index was 0.648 ± 0.025. RWVFAGVGLFVG was tested, and the protein stability index was 0.376 ± 0.025. Work on SCFDRQIFVPVC yielded a protein stability index of 0.308 ± 0.032. SDLQVMKLRSVC gave a protein stability index of 0.191 ± 0.013. In the case of SFFYFVFYYLSF, the protein stability index is reported as 0.204 ± 0.033. In the case of SFIFFVSCFFIF, the protein stability index is reported as 0.266 ± 0.017. SFLRVRSLISCS showed a protein stability index of 0.204 ± 0.026. SFSRLWSLFRCL showed a protein stability index of 0.13 ± 0.036. For SFVCFSYYIVNI, the protein stability index was 0.363 ± 0.027. Work on SFVLLSSFLVFV yielded a protein stability index of 0.241 ± 0.014. With SGFLNVGYLWVC the protein stability index was 0.175 ± 0.02. SIFLCRLQNLLI showed a protein stability index of 0.209 ± 0.035. SILVSIFILAMQ showed a protein stability index of 0.219 ± 0.048. Work on SIRVIVAVRNIS yielded a protein stability index of 0.239 ± 0.038. SISVQCSMLRVL showed a protein stability index of 0.294 ± 0.018. SLARLRRICFNT showed a protein stability index of 0.27 ± 0.042. With SLRPFFPPLPRP the protein stability index was 0.702 ± 0.031. In the case of SLVPSIFLFRIF, the protein stability index is reported as 0.307 ± 0.022. SLVVMGSLWLRI showed a protein stability index of 0.314 ± 0.077. Sequence SMGVLITYLVQV has a protein stability index of 0.288 ± 0.033. In the case of SMPWFWFVRGIG, the protein stability index is reported as 0.417 ± 0.013. Work on SNFDVRRLLVIQ yielded a protein stability index of 0.329 ± 0.039. SPSTPQALSNFS showed a protein stability index of 0.663 ± 0.025. SPTIFLPLFLTS showed a protein stability index of 0.4 ± 0.029. In the case of SRARIRLPRILS, the protein stability index is reported as 0.225 ± 0.052. With SSLTFTFAILLY the protein stability index was 0.219 ± 0.025. In the case of STLPACNCLKLL, the protein stability index is reported as 0.371 ± 0.03. STNMDNRIRTLA showed a protein stability index of 0.356 ± 0.023. SVIVSSFFLWVF was tested, and the protein stability index was 0.223 ± 0.029. SVLVWFLVFLVW gave a protein stability index of 0.211 ± 0.026. SVVYCRMRVHFV was tested, and the protein stability index was 0.285 ± 0.02. For SWGEQDRLTGYI, the protein stability index was 0.674 ± 0.026. SWMFKLCIQWNV gave a protein stability index of 0.456 ± 0.013. SWSLRLSTIFSV gave a protein stability index of 0.219 ± 0.018. SYFASLLDLFTA was tested, and the protein stability index was 0.674 ± 0.012. TDSSWEVSLMVG gave a protein stability index of 0.6186 ± 0.0039. TDVLLLQLLISV was tested, and the protein stability index was 0.219 ± 0.032. With TGPLVHLLCCCV the protein stability index was 0.315 ± 0.019. In the case of TKKGQTRPSRTD, the protein stability index is reported as 0.687 ± 0.029. TLKRCFRWCRTT was tested, and the protein stability index was 0.11 ± 0.011. TLSRTPVSPSAP showed a protein stability index of 0.6492 ± 0.0015.
